Assay results: patent US20090291890A1 (published 2009)
Residue numbers refer to the chain shown, from its start. Names and notes keep the numbering of the source.

B1: FVIIa variant S222A/Gla Swap FIX (enzyme)
chain: YNSGKLEEFVQGNLERECMEEKCSFEEAREVFENTERTTEFWKQYSDGDQCASSPCQNGGSCKDQLQSYICFCLPAFEGRNCETHKDDQLICVNENGGCEQYCSDHTGTKRSCRCHEGYSLLADGVSCTPTVEYPCGKIPILEKRNASKPQGRIVGGKVCPKGECPWQVLLLVNGAQLCGGTLINTIWVVSAAHCFDKIKNWRNLIAVLGEHDLSEHDGDEQARRVAQVIIPSTYVPGTTNHDIALLRLHQPVVLTDHVVPLCLPERTFSERTLAFVRFSLVSGWGQLLDRGATALELMVLNVPRLMTQDCLQQSRKVGDSPNITEYMFCAGYSDGSKDSCKGDSGGPHATHYRGTWYLTGIVSWGQGCATVGHFGVYTRVSQYIEWLQKLMRSEPRPGVLLRAPFP
B2: FVIIa variant S222A/H257A/Gla Swap FIX (enzyme)
chain: B1 chain with H258A
B3: FVIIa variant H257A/Gla Swap FIX (enzyme)
chain: B1 chain with A223S, H258A
B4: FVIIa variant Q286R/S222A/Gla Swap FIX (enzyme)
chain: B1 chain with Q287R
B5: FVIIa variant Q286R/S222A/H257A/Gla Swap FIX (enzyme)
chain: B1 chain with H258A, Q287R
B6: FVIIa variant Q286R/Gla Swap FIX (enzyme)
chain: B1 chain with A223S, Q287R
B7: FVIIa variant Q286R/H257A/Gla Swap FIX (enzyme)
chain: B1 chain with A223S, H258A, Q287R
B8: FVIIa variant S103S111delins… (enzyme)
chain: ANAFLEELRPGSLERECKEEQCSFEEAREIFKDAERTKLFWISYSDGDQCASSPCQNGGSCKDQLQSYICFCLPAFEGRNCETHKDDQLICVNENGGCEQYCSFGRGDIRNVCRCHEGYSLLADGVSCTPTVEYPCGKIPILEKRNASKPQGRIVGGKVCPKGECPWQVLLLVNGAQLCGGTLINTIWVVSAAHCFDKIKNWRNLIAVLGEHDLSEHDGDEQSRRVAQVIIPSTYVPGTTNHDIALLRLHQPVVLTDHVVPLCLPERTFSERTLAFVRFSLVSGWGQLLDRGATALELMVLNVPRLMTQDCLQQSRKVGDSPNITEYMFCAGYSDGSKDSCKGDSGGPHATHYRGTWYLTGIVSWGQGCATVGHFGVYTRVSQYIEWLQKLMRSEPRPGVLLRAPFP
B9: FVIIa variant H373F (enzyme)
chain: ANAFLEELRPGSLERECKEEQCSFEEAREIFKDAERTKLFWISYSDGDQCASSPCQNGGSCKDQLQSYICFCLPAFEGRNCETHKDDQLICVNENGGCEQYCSDHTGTKRSCRCHEGYSLLADGVSCTPTVEYPCGKIPILEKRNASKPQGRIVGGKVCPKGECPWQVLLLVNGAQLCGGTLINTIWVVSAAHCFDKIKNWRNLIAVLGEHDLSEHDGDEQSRRVAQVIIPSTYVPGTTNHDIALLRLHQPVVLTDHVVPLCLPERTFSERTLAFVRFSLVSGWGQLLDRGATALELMVLNVPRLMTQDCLQQSRKVGDSPNITEYMFCAGYSDGSKDSCKGDSGGPHATHYRGTWYLTGIVSWGQGCATVGFFGVYTRVSQYIEWLQKLMRSEPRPGVLLRAPFP
B10: FVIIa variant Q286R/H257A (enzyme)
chain: B9 chain with H257A, Q286R, F373H
B11: FVIIa variant Q366T (enzyme)
chain: B9 chain with Q366T, F373H
B12: FVIIa variant Q366N (enzyme)
chain: B9 chain with Q366N, F373H
B13: FVIIa variant Q366E (enzyme)
chain: B9 chain with Q366E, F373H
B14: FVIIa variant Q366V (enzyme)
chain: B9 chain with Q366V, F373H
B15: FVIIa variant R202S (enzyme)
chain: B9 chain with R202S, F373H
B16: FVIIa variant S60A (enzyme)
chain: B9 chain with S60A, F373H
B17: FVIIa variant Q286R/S222A (enzyme)
chain: B9 chain with S222A, Q286R, F373H
B18: FVIIa variant T130N/E132S (enzyme)
chain: B9 chain with T130N, E132S, F373H
B19: FVIIa variant Q366D (enzyme)
chain: B9 chain with Q366D, F373H
B20: FVIIa variant V158D/L287T/M298K (enzyme)
chain: B9 chain with V158D, L287T, M298K, F373H
B21: FVIIa variant A122N/G124S/E394N/P395A/R396S (enzyme)
chain: B9 chain with A122N, G124S, F373H, E394N, P395A, R396S
B22: FVIIa variant G318N (enzyme)
chain: B9 chain with G318N, F373H
B23: FVIIa variant V158T/L287T/M298K (enzyme)
chain: B9 chain with V158T, L287T, M298K, F373H
B24: FVIIa variant A122N/G124S (enzyme)
chain: B9 chain with A122N, G124S, F373H
B25: FVIIa variant H373A (enzyme)
chain: B9 chain with F373A
B26: FVIIa variant A292N/A294S (enzyme)
chain: B9 chain with A292N, A294S, F373H
B27: FVIIa variant S52A (enzyme)
chain: B9 chain with S52A, F373H
B28: FVIIa variant A175S (enzyme)
chain: B9 chain with A175S, F373H
B29: FVIIa variant E394N/P395A/R396S (enzyme)
chain: B9 chain with F373H, E394N, P395A, R396S
B30: FVIIa variant Q366S (enzyme)
chain: B9 chain with Q366S, F373H
B31: FVIIa variant Q286R/S222A/H257A (enzyme)
chain: B9 chain with S222A, H257A, Q286R, F373H
B32: FVIIa variant P406ins… (enzyme)
chain: ANAFLEELRPGSLERECKEEQCSFEEAREIFKDAERTKLFWISYSDGDQCASSPCQNGGSCKDQLQSYICFCLPAFEGRNCETHKDDQLICVNENGGCEQYCSDHTGTKRSCRCHEGYSLLADGVSCTPTVEYPCGKIPILEKRNASKPQGRIVGGKVCPKGECPWQVLLLVNGAQLCGGTLINTIWVVSAAHCFDKIKNWRNLIAVLGEHDLSEHDGDEQSRRVAQVIIPSTYVPGTTNHDIALLRLHQPVVLTDHVVPLCLPERTFSERTLAFVRFSLVSGWGQLLDRGATALELMVLNVPRLMTQDCLQQSRKVGDSPNITEYMFCAGYSDGSKDSCKGDSGGPHATHYRGTWYLTGIVSWGQGCATVGHFGVYTRVSQYIEWLQKLMRSEPRPGVLLRAPFPGGGSCSFGRGDIRNVC
B33: FVIIa variant P406ins… (enzyme)
chain: ANAFLEELRPGSLERECKEEQCSFEEAREIFKDAERTKLFWISYSDGDQCASSPCQNGGSCKDQLQSYICFCLPAFEGRNCETHKDDQLICVNENGGCEQYCSDHTGTKRSCRCHEGYSLLADGVSCTPTVEYPCGKIPILEKRNASKPQGRIVGGKVCPKGECPWQVLLLVNGAQLCGGTLINTIWVVSAAHCFDKIKNWRNLIAVLGEHDLSEHDGDEQSRRVAQVIIPSTYVPGTTNHDIALLRLHQPVVLTDHVVPLCLPERTFSERTLAFVRFSLVSGWGQLLDRGATALELMVLNVPRLMTQDCLQQSRKVGDSPNITEYMFCAGYSDGSKDSCKGDSGGPHATHYRGTWYLTGIVSWGQGCATVGHFGVYTRVSQYIEWLQKLMRSEPRPGVLLRAPFPCSFGRGDIRNVC

Biological target: Factor X (FX) (Homo sapiens (Human)) (UniProt P00742)
Sequence (P00742 41-488 limits assumed): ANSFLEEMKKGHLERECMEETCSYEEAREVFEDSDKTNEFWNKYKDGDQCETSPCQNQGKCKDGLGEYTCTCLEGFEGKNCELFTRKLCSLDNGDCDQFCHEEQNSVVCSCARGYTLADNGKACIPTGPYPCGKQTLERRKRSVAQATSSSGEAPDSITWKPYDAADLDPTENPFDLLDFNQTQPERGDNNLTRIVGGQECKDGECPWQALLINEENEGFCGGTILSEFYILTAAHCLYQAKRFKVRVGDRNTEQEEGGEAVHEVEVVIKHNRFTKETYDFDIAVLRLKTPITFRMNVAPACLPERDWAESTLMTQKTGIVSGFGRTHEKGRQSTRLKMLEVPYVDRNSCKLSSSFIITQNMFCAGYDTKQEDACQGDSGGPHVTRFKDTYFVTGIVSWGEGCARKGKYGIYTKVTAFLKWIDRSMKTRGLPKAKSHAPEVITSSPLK

Row | Binder | kcat/KM, TF-Dependent Indirect Assay [M⁻¹ s⁻¹]
1 | B1 | 6.55e+07
2 | B2 | 5.77e+07
3 | B3 | 6.45e+07
4 | B4 | 1.61e+08
5 | B5 | 7.75e+07
6 | B6 | 1.11e+08
7 | B7 | 8.09e+07
8 | B8 | 4.83e+07
9 | B9 | 5.11e+07
10 | B10 | 1.27e+08
11 | B11 | 3.42e+07
12 | B12 | 5.64e+07
13 | B13 | 4.77e+07
14 | B14 | 6.59e+07
15 | B15 | 2.57e+07
16 | B16 | 5.15e+07
17 | B17 | 1.42e+08

Row | Binder | kcat/KM, TF-Dependent Indirect Assay [M⁻¹ s⁻¹]
18 | B18 | 6.35e+07
19 | B19 | 1.88e+07
20 | B20 | 4.48e+06
21 | B21 | 4.88e+07
22 | B22 | 5.5e+07
23 | B23 | 4.5e+06
24 | B24 | 5.27e+07
25 | B25 | 3.11e+07
26 | B26 | 0
27 | B27 | 4.66e+07
28 | B28 | 3.32e+07
29 | B29 | 5.32e+07
30 | B30 | 2.7e+07
31 | B31 | 9.51e+07
32 | B32 | 7.47e+07
33 | B33 | 6.16e+07
